In general, stoichiometry N refers to the number of molecules, sites or subunits per partner or assembly.

Like-named read-outs stand apart in the source and are kept apart here.

The values below come from paper PMC2132775 (The Journal of Cell Biology, 1998).

The target in test [1] is FLA10, the 90-kD subunit of FLA10 kinesin-II (fla10 gene product) (Chlamydomonas reinhardtii (endogenous in flagella)) (UniProt P46869). Briefly: SEC + other: sucrose density gradient centrifugation.
Test [2] has the same target. The description is as above. This is another data set of the same source.
Test [3] has as its target T1, FLA10, the 90-kD subunit of FLA10 kinesin-II (fla10 gene product) (Chlamydomonas reinhardtii (endogenous …, UniProt P46869 1-786)).
T1 sequence (looked up): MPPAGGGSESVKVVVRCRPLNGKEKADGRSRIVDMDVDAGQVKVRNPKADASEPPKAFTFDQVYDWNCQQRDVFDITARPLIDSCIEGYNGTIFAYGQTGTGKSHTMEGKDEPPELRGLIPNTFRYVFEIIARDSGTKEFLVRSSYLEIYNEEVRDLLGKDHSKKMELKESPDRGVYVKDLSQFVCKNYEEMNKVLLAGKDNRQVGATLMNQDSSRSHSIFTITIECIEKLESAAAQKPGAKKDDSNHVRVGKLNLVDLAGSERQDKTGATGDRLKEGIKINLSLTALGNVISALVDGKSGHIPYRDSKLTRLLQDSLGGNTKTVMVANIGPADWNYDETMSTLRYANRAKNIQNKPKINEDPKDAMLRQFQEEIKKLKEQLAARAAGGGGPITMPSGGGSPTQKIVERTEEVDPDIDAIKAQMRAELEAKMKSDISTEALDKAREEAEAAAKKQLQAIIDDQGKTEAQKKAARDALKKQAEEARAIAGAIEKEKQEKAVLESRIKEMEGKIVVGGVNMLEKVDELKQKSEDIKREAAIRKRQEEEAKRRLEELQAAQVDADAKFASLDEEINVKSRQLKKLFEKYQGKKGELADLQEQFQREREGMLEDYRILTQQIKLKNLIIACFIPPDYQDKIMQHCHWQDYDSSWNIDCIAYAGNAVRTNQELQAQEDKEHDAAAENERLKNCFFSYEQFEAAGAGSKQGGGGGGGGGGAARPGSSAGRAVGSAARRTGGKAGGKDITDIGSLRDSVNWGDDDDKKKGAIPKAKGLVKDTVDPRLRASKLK
The description is as above.

Test [4] deals with T2, p172, IFT particle polypeptide of complex B (Chlamydomonas reinhardtii (endogenous in flagella)), Q5DM57.
T2 chain: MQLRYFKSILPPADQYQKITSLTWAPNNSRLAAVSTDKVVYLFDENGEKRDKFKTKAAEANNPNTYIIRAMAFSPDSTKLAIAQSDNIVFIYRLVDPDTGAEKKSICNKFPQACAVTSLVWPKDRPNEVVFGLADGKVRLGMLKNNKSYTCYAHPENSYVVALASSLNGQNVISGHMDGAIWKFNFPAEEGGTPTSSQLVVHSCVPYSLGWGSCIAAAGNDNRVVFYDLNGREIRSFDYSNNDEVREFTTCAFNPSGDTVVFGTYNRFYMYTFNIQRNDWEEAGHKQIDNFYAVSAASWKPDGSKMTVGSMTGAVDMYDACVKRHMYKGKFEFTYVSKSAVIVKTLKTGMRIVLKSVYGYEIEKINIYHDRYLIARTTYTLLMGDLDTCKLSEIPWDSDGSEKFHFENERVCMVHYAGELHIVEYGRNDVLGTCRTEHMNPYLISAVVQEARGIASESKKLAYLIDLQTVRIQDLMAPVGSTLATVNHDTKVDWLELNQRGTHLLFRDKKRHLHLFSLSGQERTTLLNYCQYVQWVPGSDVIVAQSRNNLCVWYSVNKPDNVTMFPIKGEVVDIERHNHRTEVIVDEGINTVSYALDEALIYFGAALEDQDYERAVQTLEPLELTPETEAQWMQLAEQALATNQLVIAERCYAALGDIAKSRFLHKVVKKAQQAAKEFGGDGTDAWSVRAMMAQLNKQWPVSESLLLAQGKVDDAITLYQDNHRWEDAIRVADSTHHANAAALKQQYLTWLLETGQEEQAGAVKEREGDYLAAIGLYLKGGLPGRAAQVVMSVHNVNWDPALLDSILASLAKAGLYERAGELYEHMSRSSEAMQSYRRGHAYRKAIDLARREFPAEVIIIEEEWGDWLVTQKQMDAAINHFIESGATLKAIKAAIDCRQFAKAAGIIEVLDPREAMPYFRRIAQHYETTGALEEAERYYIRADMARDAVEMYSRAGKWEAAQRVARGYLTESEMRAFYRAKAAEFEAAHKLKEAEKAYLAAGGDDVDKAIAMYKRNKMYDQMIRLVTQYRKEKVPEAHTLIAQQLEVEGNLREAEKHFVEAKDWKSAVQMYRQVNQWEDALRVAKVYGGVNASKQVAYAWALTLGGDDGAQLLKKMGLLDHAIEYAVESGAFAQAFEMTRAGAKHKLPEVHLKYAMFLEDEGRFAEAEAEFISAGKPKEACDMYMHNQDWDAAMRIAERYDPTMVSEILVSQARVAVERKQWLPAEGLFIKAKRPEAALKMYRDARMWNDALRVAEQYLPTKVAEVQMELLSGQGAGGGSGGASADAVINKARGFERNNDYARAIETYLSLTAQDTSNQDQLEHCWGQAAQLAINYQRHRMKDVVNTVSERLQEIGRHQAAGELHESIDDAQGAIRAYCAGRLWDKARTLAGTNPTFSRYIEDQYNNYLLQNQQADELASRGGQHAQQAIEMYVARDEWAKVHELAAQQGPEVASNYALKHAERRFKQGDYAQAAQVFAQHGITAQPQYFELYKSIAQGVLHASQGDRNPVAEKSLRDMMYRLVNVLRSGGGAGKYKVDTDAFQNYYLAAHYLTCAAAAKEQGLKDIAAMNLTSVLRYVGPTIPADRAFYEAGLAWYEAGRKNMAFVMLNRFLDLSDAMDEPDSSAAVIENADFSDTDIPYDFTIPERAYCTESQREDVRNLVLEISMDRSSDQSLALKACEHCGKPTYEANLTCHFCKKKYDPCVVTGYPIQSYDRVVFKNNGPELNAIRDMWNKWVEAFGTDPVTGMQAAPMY
Nature of the test: sucrose density gradient centrifugation. The settings on record: remark: other sources report otherwise.

Consider “100-kD nonmotor subunit of FLA10 kinesin-II (natural protein)”, for which the stoichiometry N stood at 1 in test [1] and 0.8 in test [2].

B1: 85-kD subunit of FLA10 kinesin-II (natural protein, UniProt A7LGV1 1-768, looked up)
chain: MASGGECVKVAVRCRPLNGKEKGDNRATIVEVDNKTGQVTLNNPKGDEPPKTFTFDNAFDWNVTQRDVYDVVARPIVNSVMDGYNGTIFAYGQTGTGKTHTMEGFPTPELQGIIPNCFDHVFETVNSSTGKQWMVRASYLEIYNEEVRDLLSKDPKNKLELKEHKDSGVYVKGLNAFVVKGVPELKNVLEVGKKNRSVGATLMNQDSSRSHSIFTITIETIEQTQAQPEGHIRVGKLNLVDLAGSERQSKTGATGDRLKEATKINLSLSALGNVISALVDGKSGHVPYRDSKLTRLLQDSLGGNTKTIMCANMGPADWNYDETLSTLRYANRAKNIKNKPKINEDPKDAMLREFQDEIARLKAALEAEGGALPEGFATGPGGEIIVEKVVQVPKALDASFLEQMRKDMEEQMKKELASQQAAALNDEQLQKVKEEAAAKAKAEAARLEEEKKKAEEEAARMQRKQQKIKAEMDKKSLDAEQIRAEKEALAKKLKAMESKILKGDQAGGLAEVTKKKEEELKRKEQELERRRKEEEEQRKKIQVMEEQQLAMEDKYKDKADEADQKTKKLKKLWKKFQEVNAEVEDMYKEFQREKEDLLESIRMLQDQMQLKDMVIEAFIPPEEVQKVMKRAHWDDEREVWVLERLSDIGKRETAQGASRRPVSASGQRRPTSDFAKLANAMGDMNPRFKSENILNLELDLPERTTYDYEGPGVDPRVQAAINAAFAEDGELIFVGSEQNVHLGDASAAAARPDSAKKRPASARKGTKK
As to B1, the “stoichiometry N” value in test [3] was 1.

B2: p81, IFT particle polypeptide of complex B, Q68RJ5 1-683 (natural protein)
chain: MGDVSYIVDSLGLPPFSYQMSLLSFTEKGPQELLQLLSDVFSTISPKHQKVDVAKEVPDQTADRLIGFLKIIKYRPNVQDPLLFRQLVAAGDRETLYQILRWVVPQAQLLEKRAFVGYYLSFPDMPEEFNFDPDIMELKEEIKAMQQEFIELHKSSDAIKTLSKDTQALKNKIKSLEEEKERLGEKVERAKGAVDKLPDRSSYMEVCTNLRKQQDEEVNLSTAIQTQRALQEKAEASYHRAAARLRELQTSYQEGSAGKLLETLNEDVKNLRAQVNERYPKEVEKRQKRQAALSEALASGISTEMDLQRLQHQATALHNQITEIQERKVAQDKARQGDKAYLQLRQAQQMATVSARKKEELGAKQERLQEKKTALTAQLDKLNAEGGGSGAVFSEEEWRTKYESMKSKLPIYKKMKKELGDLEAEVFVLAHTEELLASQEGGLLEKVKRLEKQQGISGFTETAQHLEKVSEAKSQMDEEKGMTLIEISRTVEEINNAINQRKQQLAPQIKKLRSVRQDFAEFEAKYLEKKTAYDNVVATFEARTSALEGEVSGLKAEVSENETKYHMLHCQLHITDQNIKKVTSGPAAERLRDKYEAKVKEAEDSTKALRDRQREIKDTHSTGLSQIDIMNDMLRLLQLKLNLARGIAVDMSQYGGGGGAAGGANGGMAGQTYDTGSANVLQL
With B2, in test [4], the stoichiometry N was 1.
